The results in this text go back to US20240352070.

The target in the series is T1, FRET substrate peptide KLRMKLPKP
T1 chain: KLRMKLPKP

B1: human cathepsin S wild-type, amino acids 17 to 331, C-terminal His-tag (CTSS-His) (protein)
chain: LPDSVDWREKGCVTEVKYQGSCGACWAFSAVGALEAQLKLKTGKLVSLSAQNLVDCSTEKYGNKGCNGGFMTTAFQYIIDNKGIDSDASYPYKAMDQKCQYDSKYRAATCSKYTELPYGREDVLKEAVANKGPVSVGVDARHPSFFLYRSGVYYEPSCTQNVNHGVLVVGYGDLNGKEYWLVKNSWGHNFGEEGYIRMARNKGNHCGIASFPSYPEI
With B1, the “cleavage in FRET assay” value is on record as “validating the identified peptide by showing in a FRET assay that it is cleaved by cathepsin S”.
